Target: P domain protein of norovirus VA207 (GII.9), amino acid 222-537 (norovirus VA207 (GII.9))
Experiment: crystal structure; native P protein (P2(1)2(1)2) and its complexes with Le^y or SLe^x tetrasaccharide (P2(1)2(1)2(1)); hanging drop, PEG 3350, 50 mM magnesium formate

In the case of “P domain protein of norovirus VA207 (GII.9), amino acid 222-537 (domain or fragment)”, the stoichiometry N is reported as 2.
